Experimental data taken from patent US20090118167A1, “Selective Vpac2 Receptor Peptide Agonists” (Eli Lilly and Company Patent Division, priority 2004, published 2009).
Square brackets hold non-standard residues; d marks the D form. Ends that are not written are not given here. Nle = CCCC[C@H](N)C(=O)O; Orn = NCCC[C@H](N)C(=O)O; Aib = CC(C)(N)C(=O)O

Legend:
[1] = molecular target: T1, human VPAC1 (Homo sapiens, UniProt P32241); experiment: Filter binding assay, 125I-labeled VIP tracer; conditions: membranes from cells transiently transfected with human VPAC1; read-out: Human receptor binding IC50 VPAC1
T1 construct: expressed in transfected cells
T1 sequence (P32241 31-457): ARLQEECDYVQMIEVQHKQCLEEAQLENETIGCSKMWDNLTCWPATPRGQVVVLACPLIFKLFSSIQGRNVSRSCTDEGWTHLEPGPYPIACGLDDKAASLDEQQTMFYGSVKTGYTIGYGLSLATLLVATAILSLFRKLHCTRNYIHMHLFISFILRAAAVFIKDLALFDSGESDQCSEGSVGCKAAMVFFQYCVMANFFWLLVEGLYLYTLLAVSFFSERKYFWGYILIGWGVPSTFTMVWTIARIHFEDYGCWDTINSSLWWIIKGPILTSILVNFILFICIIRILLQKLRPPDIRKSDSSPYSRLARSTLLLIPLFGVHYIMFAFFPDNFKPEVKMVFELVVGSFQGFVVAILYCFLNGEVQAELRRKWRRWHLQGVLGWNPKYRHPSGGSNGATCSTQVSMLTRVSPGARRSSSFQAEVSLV
Procedure: (§1) In order to prepare the filter plates, the presoak solution is aspirated by vacuum filtration. The plates are flushed twice with 200 μL flush buffer. 200 μL blocking buffer is added to the filter plate. The filter plate is then incubated with 200 μL presoak solution for 1 hour at room temperature.
(§2) The assay plate is filled with 25 μL assay buffer, 25 μL membranes (2.5 μg) suspended in assay buffer, 25 μL compound (agonist) in assay buffer, and 25 μL tracer (about 40000 cpm) in assay buffer. The filled plate is incubated for 1 hour with shaking.
(§3) The transfer from assay plate to filter plate is conducted. The blocking buffer is aspirated by vacuum filtration and washed two times with flush buffer. 90 μL is transferred from the assay plate to the filter plate. The 90 μL transferred from assay plate is aspirated and washed three times with 200 μL flush buffer. The plastic support is removed. It is dried for 1 hour at 60° C. 30 μL Microscint is added. The count is performed.
(§4) Values reported are single results or the mean of two or more independent runs.

[2] = molecular target: T2, human PAC1 (Homo sapiens, UniProt P41586); experiment: Filter binding assay, 125I-labeled PACAP-27 tracer; conditions: membranes from cells transiently transfected with human PAC1; read-out: Human receptor binding IC50 PAC1
T2 construct: expressed in transfected cells; membranes)
T2 sequence (P41586 21-468): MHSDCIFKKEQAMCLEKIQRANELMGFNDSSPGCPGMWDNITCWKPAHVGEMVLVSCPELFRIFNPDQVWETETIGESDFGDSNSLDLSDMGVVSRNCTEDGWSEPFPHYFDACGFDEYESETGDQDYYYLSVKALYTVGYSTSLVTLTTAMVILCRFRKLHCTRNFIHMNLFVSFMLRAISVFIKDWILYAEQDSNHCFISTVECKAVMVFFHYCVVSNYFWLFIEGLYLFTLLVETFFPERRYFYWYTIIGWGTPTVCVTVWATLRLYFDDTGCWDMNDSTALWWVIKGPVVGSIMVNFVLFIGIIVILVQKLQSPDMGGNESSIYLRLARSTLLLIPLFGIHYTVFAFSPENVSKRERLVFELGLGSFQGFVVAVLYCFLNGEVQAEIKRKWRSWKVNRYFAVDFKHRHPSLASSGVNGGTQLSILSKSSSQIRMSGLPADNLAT
Procedure: as §1, §2, §3, §4

[3] = test system: Normal Wistar rats; experiment: Intravenous glucose tolerance test (IVGTT); type: in vivo, rat; conditions: 10 min between glucose and compound
Procedure: Intravenous glucose tolerance test (IVGTT): Normal Wistar rats are fasted overnight and are anesthetized prior to the experiment. A blood sampling catheter is inserted into the rats. The compound is given in the jugular vein. Blood samples are taken from the carotid artery. A blood sample is drawn immediately prior to the injection of glucose along with the compound. After the initial blood sample, glucose mixed with compound is injected intravenously (i.v.). Compound may also be injected intravenously or subcutaneously prior to the glucose challenge. A glucose challenge of 0.5 g/kg body weight is given, injecting a total of 1.5 mL vehicle with glucose and agonist per kg body weight. The peptide concentrations are varied to produce the desired dose in μg/kg. Blood samples are drawn at 2, 4, 6 and 10 minutes after giving glucose. The control group of animals receives the same vehicle along with glucose, but with no compound added. In some instances, a 30 minute post-glucose blood sample is drawn. Aprotinin is added to the blood sample (250-500 kIU/ml blood). The serum is then analyzed for glucose and insulin using standard methodologies.
The assay uses a formulated and calibrated peptide stock in PBS. Normally, this stock is a prediluted 100 μM stock. However, a more concentrated stock with approximately 1 mg agonist per mL is used. The specific concentration is always known. Variability in the maximal response is mostly due to variability in the vehicle dose.

[4] = rat, in vivo, sc, 0.1 mg/kg
Procedure: Healthy Fisher 344 rats (3 animals per group) are injected with 100 μg compound/kg (compound amount based on peptide content and dissolved in PBS buffer). […] PK parameters are then calculated using a model-independent method (WinNonlin Pro, Pharsight Corp., Mountain View, Calif., USA).

[5] = molecular target: T3, human VPAC2 receptor (human, UniProt P41587 24-438); experiment: cell-based or functional assay
T3 sequence (looked up): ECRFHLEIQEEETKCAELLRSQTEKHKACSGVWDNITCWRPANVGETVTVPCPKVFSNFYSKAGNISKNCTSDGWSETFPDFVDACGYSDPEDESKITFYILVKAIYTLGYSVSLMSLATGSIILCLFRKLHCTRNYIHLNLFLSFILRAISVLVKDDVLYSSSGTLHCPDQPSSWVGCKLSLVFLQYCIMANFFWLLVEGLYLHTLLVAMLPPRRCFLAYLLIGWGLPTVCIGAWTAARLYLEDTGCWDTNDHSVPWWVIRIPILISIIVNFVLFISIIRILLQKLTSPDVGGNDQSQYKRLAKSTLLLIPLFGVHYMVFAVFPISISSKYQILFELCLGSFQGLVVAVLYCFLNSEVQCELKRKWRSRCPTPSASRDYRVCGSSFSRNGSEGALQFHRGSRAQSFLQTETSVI

[6] = molecular target: T4, rat VPAC2 receptor (rat, UniProt P35000 23-437); experiment: cell-based or functional assay
T4 sequence (looked up): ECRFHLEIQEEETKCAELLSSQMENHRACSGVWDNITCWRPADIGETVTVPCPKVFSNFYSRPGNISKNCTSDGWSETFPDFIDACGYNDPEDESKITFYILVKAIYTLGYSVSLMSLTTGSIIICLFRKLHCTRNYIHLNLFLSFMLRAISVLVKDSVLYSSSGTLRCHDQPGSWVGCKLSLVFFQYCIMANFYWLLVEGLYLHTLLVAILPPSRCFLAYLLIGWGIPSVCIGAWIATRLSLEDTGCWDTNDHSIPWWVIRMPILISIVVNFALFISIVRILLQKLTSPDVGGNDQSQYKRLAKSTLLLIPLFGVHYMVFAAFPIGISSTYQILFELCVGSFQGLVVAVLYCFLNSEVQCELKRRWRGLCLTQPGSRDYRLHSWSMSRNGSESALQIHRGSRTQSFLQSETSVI

[7] = molecular target: T5, rat VPAC1 receptor (rat, UniProt P30083 31-459); experiment: cell-based or functional assay
T5 sequence (looked up): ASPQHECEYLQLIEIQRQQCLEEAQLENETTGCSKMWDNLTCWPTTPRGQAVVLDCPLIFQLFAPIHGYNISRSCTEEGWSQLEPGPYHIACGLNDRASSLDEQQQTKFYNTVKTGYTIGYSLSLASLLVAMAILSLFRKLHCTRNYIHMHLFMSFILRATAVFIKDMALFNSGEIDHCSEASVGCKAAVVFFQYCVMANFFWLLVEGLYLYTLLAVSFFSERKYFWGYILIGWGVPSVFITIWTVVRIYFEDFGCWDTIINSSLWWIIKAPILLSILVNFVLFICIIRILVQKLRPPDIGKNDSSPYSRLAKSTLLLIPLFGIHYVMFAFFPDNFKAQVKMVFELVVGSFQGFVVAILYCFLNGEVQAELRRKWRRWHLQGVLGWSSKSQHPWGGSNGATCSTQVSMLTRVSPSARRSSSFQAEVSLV

[8] = molecular target: T3, human VPAC2 receptor; experiment: filter binding assay, human VPAC2 membranes, displacement of 125I-VIP
Procedure: as §2, §3

| Molecule | IC50 [1] [nM] | IC50 [2] [nM] | % increase AUC (insulin, 0-10 min after glucose) ([3]; Dose 0.5 μg/kg) | % increase AUC (insulin, 0-10 min after glucose) ([3]; Dose 5 μg/kg) | % increase AUC (insulin, 0-10 min after glucose) ([3]; Dose 15 μg/kg) | % increase AUC (insulin, 0-10 min after glucose) ([3]; Dose 50 μg/kg) | AUC0-last [4] [ng·h/mL] | Cl/F [4] [mL/min/kg] | Vd/F [4] [L/kg] | EC50 for cAMP generation, Alpha screen [5] [nM] | EC50 for cAMP generation, DiscoveRx, CHO-PO cells [6] [nM] | EC50 for cAMP generation, DiscoveRx, CHO-PO cells [7] [nM] | IC50 [8] [nM] |
| --- | --- | --- | --- | --- | --- | --- | --- | --- | --- | --- | --- | --- | --- |
| P257: cyclic PEGylated VPAC2 receptor peptide agonist (HSDAVFTENYTKL[Aib]KQ[Nle]AAKKYLNDLKKGGPSSGAPPPC; not fully specified (residue 39); ends and bridges not checked; also: cyclic, bridge type and places not given here, PEGylated, site not placed) [Agonist P257] | > 25000 | > 3000 | +14% | +114% | +158% | +230% | 4396 | 0.383 | 0.425 | – | – | – | – |
| HSDAVFTENYT[Orn]LR[Aib]Q[Nle]AA[Orn]KYLNDL[Orn][Orn]GGPSSGAPPPC (also: cyclic by a side-chain bridge (lactam or disulfide), places not given here, PEGylated, site not given here) [P463 (cyclic PEGylated VPAC2 receptor peptide agonist)] | – | – | – | – | – | – | – | – | – | 365 | 182 | 184 | > 100 |
| HSDAVFTENYT[Orn]LR[Aib]Q[Nle]AA[Orn]KYLNDL[Orn][Orn]GGPSSGAPPPC (not fully specified (residue 39); also: cyclic, bridge type and places not given here, PEGylated, site not placed) [P376 (cyclic PEGylated VPAC2 receptor peptide agonist)] | – | – | – | – | – | – | – | – | – | 4.71 | 9.13 | 48.4 | 4.89 |
| HSDAVFTENYTKLRKQ[Nle]AAKKYLNDLKQGGPSSGAPPPC (ends and bridges not checked; also: further groups not given here) [P239 (cyclic PEGylated VPAC2 receptor peptide agonist)] | – | – | – | – | – | – | – | – | – | 4.42 | 11.2 | 27.8 | 8.33 |
| HSDAVFTENYTKLRKQ[Nle]AAKKYLNDLKKGGPSSGAPPPC (not fully specified (residue 39); ends and bridges not checked; also: further groups not given here) [P201 (cyclic PEGylated VPAC2 receptor peptide agonist)] | – | – | – | – | – | – | – | – | – | 7.82 | 13.2 | 20.8 | 4.11 |
| HSDAVFTENYTKLR[Aib]Q[Nle]AAKKYLNDLK[Aib]KGGPSSGAPPPC (also: further groups not given here) [P348 (cyclic PEGylated VPAC2 receptor peptide agonist)] | – | – | – | – | – | – | – | – | – | 5.82 | 3.26 | 36.9 | 3.54 |
| HSDAVFTENYTKL[Aib]KQ[Nle]AAKKYLNDLKQGGPSSGAPPPC (ends and bridges not checked; also: further groups not given here) [P255 (cyclic PEGylated VPAC2 receptor peptide agonist)] | – | – | – | – | – | – | – | – | – | 111 | 51.4 | > 350 | > 100 |
| HSDAVFTENYTKL[Aib]KQ[Nle]AAKKYLNDLKKGGPSSGAPPPC (ends and bridges not checked; also: further groups not given here) [P257 (cyclic PEGylated VPAC2 receptor peptide agonist)] | – | – | – | – | – | – | – | – | – | 42.2 | 37.9 | > 1000 | 32.7 |
